This is an account of results in patent US12098206B2, “PDGF receptor antibody and use thereof” (Seoul National University R&DB Foundation, priority 2018, dated 2024).

Entries after “also recorded” stand apart in the source; their conditions may differ.

B1: PRb-CN26: anti-hPDGFR-β scFv clone (VH SEQ ID NO 55, VL SEQ ID NO 56), tested as scFv-Cκ-anti-cotinine scFv bispecific antibody (antibody, V domains shown)
VH: AVTLDESGGGLQTPGGGLSLVCKASGFTFSDRGIHWVRQAPGKGLEWVAGIGNTGSYTAYAPAVKGRATISRDNGQSTVRLQLNNLRAEDTATYYCAKRGFMDAGGIDAWGHGTEVIVSSTS
VL: LTQPSSVSANPGETVKITCSGGGSYAGSYYYGWYQQKSPGSAPVTVIYDNTNRPSNIPSRFSGSLSGSTDTLTITGVQAEDEAVYFCGGYDGISDTGIFGAGTTLTVL
modifications: VH of PRb-CN26; VL of PRb-CN26
B2: PRb-CN16: anti-hPDGFR-β scFv clone (VH SEQ ID NO 39, VL SEQ ID NO 40), tested as scFv-Cκ-anti-cotinine scFv bispecific antibody (antibody, V domains shown)
VH: AVTLDESGGGLQTPGTALSLVCKASGFTFSSFNMAWVRQAPGKGLEFVGEISNTAGSTFYAPAVKGRATISRDNGQSTVRLQLNNLRAEDTAIYYCAKAAGTCYSHSCTGYIDAWGHGTEVIVSSTS
VL: LTQPSSVSANPGETVKITCSGSSSSYGWYQQKSPGSAPVTLIYENNQRPSNIPSRFSGSKSGSTGTLTITGVQAEDEAVYYCGNADRSNSAGTFGAGTTLTVL
modifications: VH of PRb-CN16; VL of PRb-CN16
B3: PRb-CN32: anti-hPDGFR-β scFv clone (VH SEQ ID NO 47, VL SEQ ID NO 48), tested as scFv-Cκ-anti-cotinine scFv bispecific antibody (antibody, V domains shown)
VH: AVTLDESGGGLQTPRGTLSLVCKASGFTFSSFNMFWVRQAPGKGLEFVAGISTTGRYTGYGSAVQGRGTISRDNGQSTVRLQLNNLRAEDTGTYYCAKSAGSTYSYWDSDAGLIDAWGHGTEVIVSSTS
VL: LTQPSSVSANLGETVKITCSGGSNAGSYYYGWYQQKSPGSAPVTVIYSNNQRPSDIPSRFSGSTSGSTSTLTITGVQVDDEAVYFCGSGDSSSIAAFGAGTTLTVL
modifications: VH of PRb-CN32; VL of PRb-CN32

Chain of Cynomolgus monkey PDGFR-β (as listed by the source): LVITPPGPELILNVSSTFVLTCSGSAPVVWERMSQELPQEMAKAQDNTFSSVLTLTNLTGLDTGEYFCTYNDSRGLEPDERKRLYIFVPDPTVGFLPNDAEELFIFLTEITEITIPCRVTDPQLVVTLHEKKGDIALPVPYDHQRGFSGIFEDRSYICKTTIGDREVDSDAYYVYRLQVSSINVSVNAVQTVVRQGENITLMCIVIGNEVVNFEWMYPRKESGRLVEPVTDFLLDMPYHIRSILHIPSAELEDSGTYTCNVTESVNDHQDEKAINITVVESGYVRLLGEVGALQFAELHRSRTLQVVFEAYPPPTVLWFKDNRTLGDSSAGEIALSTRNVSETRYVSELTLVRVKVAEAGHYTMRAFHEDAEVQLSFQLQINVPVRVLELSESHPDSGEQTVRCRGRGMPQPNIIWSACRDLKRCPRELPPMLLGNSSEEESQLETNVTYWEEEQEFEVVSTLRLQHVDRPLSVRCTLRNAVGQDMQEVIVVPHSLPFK
T4 sequence (P09619 33-531): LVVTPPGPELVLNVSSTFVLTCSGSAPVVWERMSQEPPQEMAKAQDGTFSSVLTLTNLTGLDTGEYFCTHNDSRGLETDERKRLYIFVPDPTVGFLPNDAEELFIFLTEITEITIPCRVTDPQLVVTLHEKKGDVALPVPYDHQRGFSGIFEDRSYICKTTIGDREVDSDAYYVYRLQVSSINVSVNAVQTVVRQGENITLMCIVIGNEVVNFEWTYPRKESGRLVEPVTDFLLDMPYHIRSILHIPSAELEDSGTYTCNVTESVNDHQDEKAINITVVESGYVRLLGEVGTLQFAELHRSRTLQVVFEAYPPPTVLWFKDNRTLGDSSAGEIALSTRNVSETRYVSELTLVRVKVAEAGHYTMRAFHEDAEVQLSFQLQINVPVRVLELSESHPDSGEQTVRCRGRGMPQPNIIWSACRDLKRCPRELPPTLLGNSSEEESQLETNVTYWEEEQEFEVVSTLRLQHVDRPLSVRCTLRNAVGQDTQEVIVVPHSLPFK
Chain of Sus scrofa PDGFR-β (as listed by the source): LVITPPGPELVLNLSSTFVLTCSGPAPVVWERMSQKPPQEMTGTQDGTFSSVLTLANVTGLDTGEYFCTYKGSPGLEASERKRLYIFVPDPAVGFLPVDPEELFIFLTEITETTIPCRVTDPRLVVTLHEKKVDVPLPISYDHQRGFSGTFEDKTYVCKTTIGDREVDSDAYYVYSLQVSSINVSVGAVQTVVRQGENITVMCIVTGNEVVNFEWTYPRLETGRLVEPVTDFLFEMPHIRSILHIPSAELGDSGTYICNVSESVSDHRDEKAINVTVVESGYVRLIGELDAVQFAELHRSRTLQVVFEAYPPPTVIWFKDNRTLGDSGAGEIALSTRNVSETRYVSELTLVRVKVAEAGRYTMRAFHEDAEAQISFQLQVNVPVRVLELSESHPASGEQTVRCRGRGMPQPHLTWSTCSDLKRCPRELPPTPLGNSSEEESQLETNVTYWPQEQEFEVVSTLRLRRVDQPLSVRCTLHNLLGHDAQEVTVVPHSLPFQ

The target of one experiment is T1, Rhesus PDGFR-β (Macaca mulatta, UniProt I0FLK2).
T1 construct: Fc; purchased Sino Biological Inc. 90215-C02H
Put plainly: Cross-species enzyme immunoassay, Rhesus PDGFR-β. The experiment is classed as binding. The following applies: 100 nM; FIG. 17. As to the method:
(§1) 100 ng of hPDGFR-β, mPDGFR-β, rhesus PDGFR-β (90215-C02H, Sino Biological Inc. Beijing, China), cynomolgus monkey PDGFR-β, Sus scrofa PDGFR-β-Fc chimera or TNF-α receptor extracellular domain-human Fc fusion protein was coated with 4° C. temperature O/N. After blocking the wells, sequential culture of the anti-hPDGFR-β scFv-Cκ-scFv fusion protein and the HRP conjugated anti-human Cκ antibody was followed in the same manner as in Example 3.
(§2) FIG. 17 is a graph showing an experiment of the cross-species reaction of the bispecific antibody against the anti-hPDGFR-β antibody according to the present invention. On the microtiter plates coated with hPDGFR-β, mPDGFR-β, Rhesus PDGFR-β, Cynomolgus monkey PDGFR-β, Sus scrofa PDGFR-β and control Fc coated, the bispecific antibody containing anti-hPDGFR-β antibody according to the present invention (100 nM) was reacted and the amount of bound bispecific antibody was measured using HRP conjugated anti-human Cκ antibody and TMB.
With B1, the “cross-species binding, Rhesus PDGFR-β” value was “confirmed to bind”.
On the same count and under the same terms, under B2 stands “confirmed to bind”; under B3, “confirmed to bind”.

In another experiment the test system is Cynomolgus monkey PDGFR-β. Put plainly: Cross-species enzyme immunoassay, Cynomolgus monkey PDGFR-β. The experiment is classed as binding. The note with it: 100 nM; FIG. 17. As to the method:
as §1, §2
In the case of B1, the “cross-species binding, Cynomolgus monkey PDGFR-β” value is recorded as “confirmed to bind”.
B2: the “cross-species binding, Cynomolgus monkey PDGFR-β” value is listed as “confirmed to bind”.
On the same count and under the same terms, under B3 stands “confirmed to bind”.

For a further experiment, the system named is Sus scrofa PDGFR-β. Put plainly: Cross-species enzyme immunoassay, Sus scrofa PDGFR-β. The following applies: 100 nM; FIG. 17. The experiment is classed as binding. Here is the method:
as §1, §2
Take B1: the “cross-species binding, Sus scrofa PDGFR-β” value is reported as “confirmed to bind”.
Same read-out and setting: then B2, with “confirmed to bind”.
B3: the “cross-species binding, Sus scrofa PDGFR-β” value is on record as “confirmed to bind”.

The next experiment deals with T2, hPDGFR-β and cotinine (Homo sapiens, UniProt P09619).
T2 construct: made in house
T2 sequence (P09619 33-531): as the sequence (P09619 33-531) above
The experiment can be described thus: Enzyme immunoassay, simultaneous binding to cotinine and hPDGFR-β. The note with it: cotinine-BSA coated wells, then hPDGFR-β-Fc chimera; FIG. 12d. Here is the method: In order to determine of the simultaneous binding ability of cotinine and hPDGFR-β, an anti-hPDGFR-β x cotinine scFv-Cκ-scFv fusion protein was cultured in wells coated with cotinine-BSA. Washing was performed for each process, and hPDGFR-β-Fc chimeric protein and HRP-anti human Fc antibody were incubated in order. The three kinds of bispecific antibody scFv-Cκ-scFv fusion proteins simultaneously bound to hPDGFR-β and cotinine (FIG. 12d).
As to B1, the “simultaneous binding to hPDGFR-β and cotinine” value was “capable of simultaneously binding hPDGFR-β and cotinine”.
Consider B2, for which the “simultaneous binding to hPDGFR-β and cotinine” value was “capable of simultaneously binding hPDGFR-β and cotinine”.
The same measure, in the same setting: then B3, with “capable of simultaneously binding hPDGFR-β and cotinine”.

For a further experiment, the system named is human pericyte cells. The experiment can be described thus: Internalization analysis by confocal microscopy in human pericyte cells. The experiment is classed as cell-based. The following applies: 10 μg/mL, 37° C., 30 minutes, absence of hPDGF-BB, FIG. 13c. Here is the method:
Human pericyte cells were treated with the diluted bispecific antibody scFv-Cκ-scFv (10 μg/mL) in pericyte growth medium supplemented with 10% FBS, and internalized at 37° C. for 30 minutes. The analysis was performed in the same manner according to the protocol of the confocal microscope of the anti-mPDGFR-β x cotinine scFv-Cκ-scFv fusion protein of Example 4. After the addition of hPDGF-BB (50 ng/mL) to the bispecific antibody scFv-Cκ-scFv fusion protein, the confocal microscopy experiments were performed according to the same protocol.
The internalization of the bispecific antibody scFv-Cκ-scFv fusion protein was visualized. After treatment of human pericyte cells with the fusion protein, antibodies bound to the cell surface were removed. After cell fixation, the fusion protein was stained with FITC-anti human Cκ antibody (green). To visualize early endosomes, the cells were stained with anti-Rab5 antibody and Alexa Fluor 546-goat anti-rabbit antibody IgG (red). […] DNA was stained with DAPI (blue)(Scale bar, 10 μm). FIG. 13d was repeated with hPDGF-BB.
To measure the cellular internalization of the bispecific antibody of scFv-Cκ-scFv, anti-hPDGFR-β x cotinine scFv-Cκ-scFv fusion protein was incubated in human pericyte cells, and then treated with FITC-anti-human Cκ antibody and endosome-specific antibody. It was imaged using a confocal microscope. […] When the images were merged, the present inventors confirmed that the fluorescence of the two antibody clones and the endosome-specific antibody were co-localized. […] Internalization of the antibody is very important for delivery of drug into the target cell. […] Therefore, it is useful for intracellular delivery of drug to patients with diseases.
Take B1: the cellular internalization result was “not internalized”.
On the same count and under the same terms, under B2 stands “Intracellular fluorescence was detected”; under B3, “Intracellular fluorescence was detected; also recorded: internalizes most effectively”.

Still in this experiment, the particulars now being: treated with hPDGF-BB (50 ng/mL), FIG. 13d.
With B1, the cellular internalization entry was “co-localized with endosome-specific antibody; also recorded: internalized in a large amount within 30 minutes”.
In the case of B2, the cellular internalization result is “co-localized with endosome-specific antibody”.
Still for that read-out and setting: then B3, with “co-localized with endosome-specific antibody”.

Another experiment deals with T3, human pericyte cells expressing hPDGFR-β (Homo sapiens, UniProt P09619).
T3 construct: host or cells: human pericyte cells
T3 sequence (P09619 33-1106): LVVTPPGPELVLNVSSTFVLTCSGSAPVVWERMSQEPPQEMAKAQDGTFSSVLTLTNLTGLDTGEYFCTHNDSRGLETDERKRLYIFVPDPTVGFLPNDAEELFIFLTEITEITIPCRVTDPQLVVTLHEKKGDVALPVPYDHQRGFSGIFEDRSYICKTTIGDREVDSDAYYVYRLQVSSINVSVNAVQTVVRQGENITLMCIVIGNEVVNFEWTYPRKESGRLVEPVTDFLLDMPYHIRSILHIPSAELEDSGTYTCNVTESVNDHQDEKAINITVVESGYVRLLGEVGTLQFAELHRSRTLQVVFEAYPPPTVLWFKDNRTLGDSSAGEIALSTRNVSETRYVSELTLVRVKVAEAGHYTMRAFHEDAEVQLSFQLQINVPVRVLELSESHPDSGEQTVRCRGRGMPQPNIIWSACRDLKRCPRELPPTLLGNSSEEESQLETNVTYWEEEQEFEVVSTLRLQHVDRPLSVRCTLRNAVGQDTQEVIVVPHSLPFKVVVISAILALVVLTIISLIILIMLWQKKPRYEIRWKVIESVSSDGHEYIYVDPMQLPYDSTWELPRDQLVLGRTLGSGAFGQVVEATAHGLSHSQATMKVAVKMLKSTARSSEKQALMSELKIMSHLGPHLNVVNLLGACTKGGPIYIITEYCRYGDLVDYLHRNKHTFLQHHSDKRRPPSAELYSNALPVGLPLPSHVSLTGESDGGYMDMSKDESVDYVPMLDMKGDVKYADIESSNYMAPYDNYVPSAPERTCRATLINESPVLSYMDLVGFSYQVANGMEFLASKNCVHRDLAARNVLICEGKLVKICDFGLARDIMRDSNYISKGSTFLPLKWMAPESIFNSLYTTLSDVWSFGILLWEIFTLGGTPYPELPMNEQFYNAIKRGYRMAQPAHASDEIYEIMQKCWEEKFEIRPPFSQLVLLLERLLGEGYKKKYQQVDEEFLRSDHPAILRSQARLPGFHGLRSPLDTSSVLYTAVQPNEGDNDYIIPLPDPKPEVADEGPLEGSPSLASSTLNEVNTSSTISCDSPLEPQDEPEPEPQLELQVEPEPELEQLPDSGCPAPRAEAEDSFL
The experiment can be described thus: Flow cytometry binding to human pericyte cells expressing hPDGFR-β. The note with it: 100 nM antibody, FIG. 13b. Here is the method:
Human pericyte cells were cultured at 4° C. for 1 hour using the bispecific antibody of scFv-Cκ-scFv fusion protein (100 nM) under two different conditions with or without hPDGF-BB-biotin (100 nM, BT220; R&D systems). The cells were washed 4 times with flow cytometry buffer and cultured with allophycocyanin (APC)-anti-human Cκ antibody (clone TB28-2; BD Biosciences, San Jose, CA, USA) and streptavidin-phycoerythrin (PE) (12-4317-87; eBioscience, ThermoFisher). After washing, it was classified and analyzed with a FACS Canto II instrument (BD Biosciences, San Jose, CA, USA). 10,000 cells were used for each measurement, and the results were analyzed by FlowJo (Tree Star, Ashland, OR, USA).
In general terms: In flow cytometry, cells or beads pass a laser one at a time.
Consider B1, for which the “cell binding in the presence of hPDGF-BB-biotin” value (from here on “cell binding in the presence”) is on record as “able to bind to hPDGFR-β in the presence of hPDGF-BB-biotin”.
Take B2: the “cell binding in the presence” value is reported as “able to bind to hPDGFR-β in the presence of hPDGF-BB-biotin”.
With B3, the “cell binding in the presence” value is on record as “able to bind to hPDGFR-β in the presence of hPDGF-BB-biotin”.

The next experiment has as its target T4, PDGFR-β (Homo sapiens, UniProt P09619). The experiment can be described thus: Enzyme immunoassay on hPDGFR-β-Fc chimera coated plate. The note with it: 100 nM; FIG. 17. In kind it is binding. Set-up: made in house. As to the method: 100 ng of hPDGFR-β-Fc chimera in the coating buffer or extracellular region of TNF-α receptor-human Fc fusion protein was coated on a microtiter plate at 4° C. O/N. Each well was blocked with 150 μL of 3% (w/v) BSA (bovine serum albumin) in PBS as a blocking agent at 37° C. for 1 hour. After treatment with various concentrations of bispecific antibodies of scFv-Cκ-scFv fusion protein (0.01 nM-1 μM), the analysis was performed in the same protocol of the concentration-dependent binding ability of anti-mPDGFRR-β scFv-Cκ-scFv fusion protein.
as §1
In the case of B1, the “cross-species binding, hPDGFR-β” value was “confirmed to bind”.
The same measure, in the same setting: then B2, with “confirmed to bind”; and B3, with “confirmed to bind”.

The target in the next experiment is T4, PDGFR-β. Put plainly: Competition enzyme immunoassay with hPDGF-BB. The experiment is classed as binding. Set-up: made in house. The following applies: hPDGF-BB 100 nM. As to the method: In order to confirm the competition between the bispecific antibody scFv-Cκ-scFv and hPDGF-BB, as in Example 3, hPDGFR-β-Fc chimera was coated on a microtiter plate and then blocked. The microtiter plate was treated with various concentrations of the bispecific antibody (0.01 nM-1 μM) with or without addition of hPDGF-BB (100 nM; 220-BB; R&D systems), and then incubated at 37° C. for 2 hours. The washing, incubation, and detection were performed in the same manner as the enzyme immunoassay described above.
Take B1: the “binding ability to hPDGFR-β in the presence of hPDGF-BB” value is listed as “not inhibited in the presence of hPDGF-BB”.
The same measure, in the same setting: then B2, with “not inhibited in the presence of hPDGF-BB”; and B3, with “not inhibited in the presence of hPDGF-BB”.
